Assay results taken from patent US8680233B2, “Heteropeptides useful for reducing nonspecific adsorption” (Valorisation-Recherche, Limited Partnership, priority 2009, dated 2014).
Square brackets hold non-standard residues; d marks the D form. Mpa = O=C(O)CCS

How the values were obtained:
[1] = Capillary electrophoresis, global charge of the peptide; assay type: physicochemical
Procedure: Capillary electrophoresis was performed to determine if this difference of configuration is due to the global charge of the peptide.

[2] = Secondary structure of peptide SAM by FT-IR (mid-IR amide band); assay type: physicochemical; conditions: peptide SAM on gold-coated SPR sensor
Procedure: Microscope slides (BK7, 22×22 mm) were coated with a 3 nm titanium (Ti) adhesion layer and a 50 nm gold (Au) layer (purity 99.99%, ESPI metals) using a Cressington™ 308R sputter coater. These Au-coated SPR slides were immersed for at least 16 h in a 5 mM peptide solution in absolute ethanol to form a well-ordered monolayer (Masson, J. F. et al. Talanta 2004, 64: 716). Four replicates were prepared for each 3-MPA-peptide. The SAM formed on the SPR sensors was extensively rinsed with DMF and ethanol and dried. The mid-IR spectrum of the peptide monolayers immobilized on the SPR sensors was measured in attenuated total reflectance (ATR). Mid-IR spectra were recorded using a BRUKER TENSOR® 27 equipped with a Ge-ATR module.
The 3D structure of the peptides as SAMs is observed with the amide band visible in FT-IR. Peptides adopting an α-helix configuration are showing a strong amide band at 1645 cm^−1, while peptides auto-assembling in the β-sheet configuration leads to a shifted amide at 1675 cm^−1. Every peptide structure investigated in Table 1 adopted an α-helix configuration except for 3-MPA-HHHDD-OH, as shown in FIG. 3.
Peptides adopt secondary conformation, which plays a significant role in their biological activity. For peptides in solution, the secondary conformation is measured with CD, while peptides immobilized on a surface can be analyzed with mid-IR spectroscopy of the amide bands (Duevel, R. V., Corn, R. M., 1992. Analytical Chemistry 64(4), 337-342; Sakurai, T. et al., 2006. Journal of Peptide Science 12(6), 396-402). As listed in Table II, the secondary structure of most peptides adopted an α-helical conformation, with the exception of 3-MPA-DSDSD-OH, which adopted an extended conformation. As noted above, most peptides in the form of 3-MPA-peptide-OH adopt an α-helical conformation. Generally, mid-IR and CD agreed in the determination of the structures on surfaces and in solution, with the exception of one peptide. […] No relationship between structure and nonspecific adsorption could be established.

[3] = Advancing contact angle in PBS on peptide SAMs; assay type: physicochemical; conditions: average of four replicates
[4] = Surface concentration of the peptide monolayer on Au by SPR; assay type: physicochemical; conditions: peptide SAM on Au SPR sensor; average of four replicates
Procedure: The surface coverage for each monolayer was measured according to the change in response of the SPR sensor in PBS for the bare Au surface relative to the peptide-coated Au surface. To measure the formation of the monolayers, each SPR sensor was mounted on a custom-made SPR instrument in the Kretschmann configuration based on a dove prism with wavelength interrogation as previously described (Bolduc et al., 2009, supra). An Ocean Optics™ USB4000 fibre optic spectrometer ranging from 550 to 850 nm was used to acquire the spectral information processed with Matlab to obtain the SPR sensorgram. A 25 μL Teflon fluidic cell positioned on top of the SPR sensors was used to inject the solutions required to functionalize with the recognition element and detect the analytes of interest. The SPR response was acquired at a frequency of 1 Hz. The s-polarized reference was acquired in PBS buffer before monitoring a 5 minute baseline in p-polarization. PBS was replaced with crude bovine serum (76 mg/mL protein) for 20 minutes and rinsed with PBS for 5 minutes to quantify the amount of non-specifically adsorbed proteins.
The formation of monolayers on Au was measured to ensure that the peptide monolayers are indeed binding to the SPR sensor. The surface concentration of the monolayer provides a measurement of the number of molecules per square cm (i.e. the density of the monolayer at the surface). The surface concentration (Γ) of peptide-like self-assembled monolayers (SAMs) was characterized with the measurement of the SPR response before the formation of the SAMs and after their formation on the Au surface of the SPR sensor. The difference of SPR wavelength (λSPR) between these two measurements increases with the increasing surface concentration of the SAMs following the equation proposed by Jung et al. (Jung, L. S. et al. Langmuir 1998, 14: 5636): Γ=ρ(−0.5/d)ln(1−(ΔλSPRm^−1(ηSAM−ηPBS)^−1)) (eq. 1)

[5] = biological target: T1, human dihydrofolate reductase (hDHFR) (Homo sapiens, UniProt P00374); conditions: previously determined in presence of saturating reactants; cited from earlier work
T1 construct: made in house
T1 sequence (P00374 1-187): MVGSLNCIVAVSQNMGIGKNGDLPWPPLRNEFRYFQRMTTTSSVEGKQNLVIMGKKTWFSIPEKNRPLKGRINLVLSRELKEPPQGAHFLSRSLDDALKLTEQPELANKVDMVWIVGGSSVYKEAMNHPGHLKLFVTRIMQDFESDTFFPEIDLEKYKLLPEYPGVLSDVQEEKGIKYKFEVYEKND

[6] = biological target: T1, human dihydrofolate reductase (hDHFR); test: Real-time UV/Vis monitoring of the enzymatic reaction of immobilized hDHFR; assay type: biochemical
Procedure: The peptidomimetic monolayer binding His-tagged biomolecules was exposed for a period of 15 min to a 50 μg/mL PBS solution of His-tagged hDHFR, then rinsed with PBS. The SPR sensor with His-tagged hDHFR was placed in a UV/Vis cuvette, similar to a method developed by Knoll et al. (Xu et al., 2005. Journal of the American Chemical Society 127(38), 13084-13085). His-tagged hDHFR was obtained as previously reported (Volpato et al., 2007 Journal of Molecular Biology 373, 599-611). A negative control, consisting of the peptidomimetic-modified SPR sensor without hDHFR was exposed to buffer and rinsed to verify that the observed change in absorbance was due to immobilized His-tagged hDHFR and not to the surface itself. The enzymatic reaction catalyzed by hDHFR was monitored by UV/Vis spectrometry. The SPR sensors were immersed in a solution of 100 μM NADPH (cofactor) and 100 μM dihydrofolate (DHF, substrate) in 10 mM Tris buffer, pH=8.0, for 1 hour. The activity of the enzyme was measured by following the time course of the absorption (ΔA(t)) at λ=340 nm due to consumption of NADPH and DHF, by subtracting the blank signal (Ablank(t)) and the initial absorbance of the solution (A(O)). The activity was confirmed for each sample of His-tagged hDHFR on the SPR sensor. 1 U of enzyme activity corresponds to conversion of 1 μmol substrate to product per min. Absorption spectra were recorded with a Cary 100 Bio UV/Vis spectrometer equipped with a liquid temperature control system running at 35° C. to be in the optimal condition for the enzymatic reaction to take place. After monitoring the activity, the SPR sensors were rinsed with buffer, 18.2 MΩ water and the His-tagged hDHFR was removed from the surface with a 0.5 M imidazole solution for 10 minutes. […]
In contrast with those results, immobilizing His-tagged hDHFR on the peptidomimetic monolayer allowed to retain the activity of the enzyme. This is observed by a consumption of the reactants (NADPH and DHF), decreasing the absorbance measured at λ=340 nm (FIG. 3). According to the absorption coefficient (Δ∈=12.8 mM^−1 cm^−1), the measured slope (5.7*10 Abs/min) corresponded to an activity of 4.4±0.8*10^−5 U. The specific activity of His-tagged hDHFR previously determined in presence of saturating reactants was 8.5 U/mg. Thus, the activity measured on the surface corresponded to 5±0.9 ng (n=4) of fully active hDHFR. […] The fraction of active enzyme on the surface cannot be determined, because the activity measured for the enzyme immobilized on the surface of the SPR is a factor of the activity of the enzyme (as for the enzyme in solution) and the time required for the products to diffuse in the light beam of the UV-Vis (not a factor for the enzyme in solution). […]

With “3-MPA-HHDDD-OH ([Mpa]HHDDD-OH; SMILES O=C(O)C[C@H](NC(=O)[C@H](CC(=O)O)NC(=O)[C@H](CC(=O)O)NC(=O)[C@H](Cc1c[nH]cn1)NC(=O)[C@H](Cc1c[nH]cn1)NC(=O)CCS)C(=O)O)” the “Global charge of the peptide” value [1] was “about −1”.

For “3-MPA-HHHDD-OH ([Mpa]HHHDD-OH; SMILES O=C(O)C[C@H](NC(=O)[C@H](CC(=O)O)NC(=O)[C@H](Cc1c[nH]cn1)NC(=O)[C@H](Cc1c[nH]cn1)NC(=O)[C@H](Cc1c[nH]cn1)NC(=O)CCS)C(=O)O)”, the “Global charge of the peptide” value [1] was “about −1”, the “Secondary Structure FT-IR (SAM)” value [2] was “β-sheet” and the “Contact angle in PBS θC_PBS” value [3] was 37.8 °. For the same molecule, the “Surface density ΔΓSAM” value [4] was 0.230 10^15 molecule/cm^2.

In the case of “3-MPA-HHHHD-OH ([Mpa]HHHHD-OH; SMILES O=C(O)C[C@H](NC(=O)[C@H](Cc1c[nH]cn1)NC(=O)[C@H](Cc1c[nH]cn1)NC(=O)[C@H](Cc1c[nH]cn1)NC(=O)[C@H](Cc1c[nH]cn1)NC(=O)CCS)C(=O)O)”, the “Global charge of the peptide” value [1] is reported as “about −1”.

B1: His-tagged hDHFR: His-tagged human dihydrofolate reductase immobilized on the SPR sensor (protein)
chain: MVGSLNCIVAVSQNMGIGKNGDLPWPPLRNEFRYFQRMTTTSSVEGKQNLVIMGKKTWFSIPEKNRPLKGRINLVLSRELKEPPQGAHFLSRSLDDALKLTEQPELANKVDMVWIVGGSSVYKEAMNHPGHLKLFVTRIMQDFESDTFFPEIDLEKYKLLPEYPGVLSDVQEEKGIKYKFEVYEKND
modifications: left off: small tags and cut ends
notes: His-tagged human dihydrofolate reductase immobilized on the SPR sensor
For B1, the Specific activity [5] is given as 8.5 U/mg, the “Enzyme activity after covalent immobilization” value ([6]; covalently immobilized to 16-MHA using EDC/NHS chemistry) is given as “inactive” and the “Average variation of the absorbance value over 60 minutes” value ([6]; four sensors regenerated with imidazole, n=8) is given as −0.034±0.006. For the same molecule, the “Enzyme activity of immobilized enzyme” value ([6]; immobilized on peptidomimetic monolayer, absorbance at 340 nm) was 4.4±0.8*10^−5 U and the “Amount of fully active enzyme corresponding to the measured surface activity” value ([6]; n=4) was 5 ± 0.9 ng.
